Reference: publication doi:10.1101/2024.04.18.590116 (bioRxiv, 2024)

Biological target: T1, 6xHis-MPK3 (rice, UniProt Q10N20 1-369)
T1 sequence (looked up): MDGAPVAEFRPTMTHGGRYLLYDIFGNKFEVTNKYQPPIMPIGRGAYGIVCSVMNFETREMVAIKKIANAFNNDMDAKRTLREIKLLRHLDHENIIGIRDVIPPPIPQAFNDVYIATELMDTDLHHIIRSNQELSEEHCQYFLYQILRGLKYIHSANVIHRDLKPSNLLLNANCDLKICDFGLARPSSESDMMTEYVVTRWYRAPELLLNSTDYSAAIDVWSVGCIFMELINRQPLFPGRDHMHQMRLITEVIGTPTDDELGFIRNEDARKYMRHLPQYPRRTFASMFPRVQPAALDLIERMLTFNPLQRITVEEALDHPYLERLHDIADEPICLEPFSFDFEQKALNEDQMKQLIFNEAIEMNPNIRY
Assay: pull-down

binding result: binds
B1: GST-KRP3 (natural protein, rice (Oryza sativa), UniProt Q2R185 1-225, looked up)
chain: MGKYLRSSCKQQQQPSSPAAVASVAAAAVSSYSYLTLRSGRRVPAAAAAAGGSACRRRHRRGGRRGCAKNGAGSARACGARSPTSSASSGQRRRCEAVECSHGGGRAELSRSPPLGNSVVVVSGDVVSGERKSLKPNSCSREVAAEHAGEHKHNPAAAAAAGRRPPLSPPEAEIEAFFAAAELAERRRFAEKYNYDIALDRPLQGRYEWEPTVPNFDVAKDVTDM
